Reference: publication PMC8264439
Where two headings read alike, the source gives them in different places.

How the values were obtained:
Test in all cases: SEC; analytical Superdex 200 increase 10/300 GL; 180 μM protein in 50 μL injected; 20 mM Hepes (pH 7.5); 0.75 ml/min; 25°C; dimer to monomers
[1] = molecular target: SARS-CoV-2 3CLpro C145A variant (SARS-CoV-2)
[2] = molecular target: SARS-CoV-2 3CLpro C145A variant (SARS-CoV-2); remark: listed apart in the source
[3] = molecular target: SARS-CoV-2 3CLpro C145S variant (SARS-CoV-2)
[4] = molecular target: SARS-CoV-2 3CLpro C145S variant (SARS-CoV-2); remark: listed apart in the source
[5] = molecular target: SARS-CoV-2 3CLpro H41A variant (SARS-CoV-2)
[6] = molecular target: SARS-CoV-2 3CLpro H41D variant (SARS-CoV-2)
[7] = molecular target: SARS-CoV-2 3CLpro H41E variant (SARS-CoV-2)

Work on “SARS-CoV-2 3CLpro C145A variant (enzyme)” yielded a stoichiometry N [1] greater than 2 and a stoichiometry N [2] of 2.

With “SARS-CoV-2 3CLpro C145S variant (enzyme)” the stoichiometry N [3] was 2 and the stoichiometry N [4] was greater than 2.

SARS-CoV-2 3CLpro H41A variant (enzyme) was tested, and the stoichiometry N [5] was 2.

Substance SARS-CoV-2 3CLpro H41D variant (enzyme) has a stoichiometry N [6] of 2.

Work on SARS-CoV-2 3CLpro H41E variant (enzyme) yielded a stoichiometry N [7] of 2.
